We go through 4 molecules from patent US20220204609A1 (SHANDONG BOAN BIOTECHNOLOGY, published 2022).

The target of experiment [1] is T1, Claudin18.2 on cells (human, UniProt P56856-2 1-261).
T1 construct: whole, on cells; the cell line of each result is named under assay or readout
Briefly: flow cytometry on 293T-Claudin18.2 cells, antibody at 1.5 µg/mL.

The target of experiment [2] is T1, Claudin18.2 on cells. The experiment is described as follows: cell-based or functional assay.
Experiment [3] deals with T1, Claudin18.2 on cells. Briefly: flow cytometry on NUGC4 cells, antibody at 0.75 µg/mL.
The target in experiment [4] is T1, Claudin18.2 on cells. Briefly: flow cytometry on NUGC4 cells, antibody at 1.5 µg/mL.
Experiment [5] deals with T1, Claudin18.2 on cells. Briefly: flow cytometry on 293T-Claudin18.2 cells, antibody at 3 µg/mL.
Experiment [6] has as its target T1, Claudin18.2 on cells. The experiment is described as follows: flow cytometry on 293T-Claudin18.2 cells, antibody at 0.375 µg/mL.
For experiment [7], the target named is T1, Claudin18.2 on cells. Briefly: flow cytometry on 293T-Claudin18.2 cells, antibody at 0.75 µg/mL.
Experiment [8] has as its target T1, Claudin18.2 on cells. Briefly: flow cytometry on NUGC4 cells, antibody at 3 µg/mL.
Experiment [9] deals with T2, Human CD16a(F) (Sino Biological, 10389-H27H-B) (human, UniProt P08637 17-208).
T2 construct: Loaded on streptavidin biosensors
T2 sequence (P08637 17-208 limits assumed): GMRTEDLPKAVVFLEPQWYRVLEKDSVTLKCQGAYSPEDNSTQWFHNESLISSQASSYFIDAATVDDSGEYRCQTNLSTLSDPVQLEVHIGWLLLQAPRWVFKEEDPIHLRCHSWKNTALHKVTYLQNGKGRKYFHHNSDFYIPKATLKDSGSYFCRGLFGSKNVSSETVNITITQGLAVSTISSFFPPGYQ
The experiment is described as follows: BLI (Octet RED 96), Human CD16a(F) on streptavidin biosensor, 1:1 fit.

Experiment [10] has as its target T3, Human CD16a(V) (Sino Biological, 10389-H27H1-B) (human, UniProt P08637 17-208).
T3 construct: Loaded on streptavidin biosensors
Briefly: BLI (Octet RED 96), Human CD16a(V) on streptavidin biosensor, 1:1 fit.

The target of experiment [11] is T4, Human CD32a(H) (Sino Biological, 10374-H27H1-B) (human, UniProt P12318 34-218).
T4 construct: Loaded on streptavidin biosensors
T4 sequence (looked up): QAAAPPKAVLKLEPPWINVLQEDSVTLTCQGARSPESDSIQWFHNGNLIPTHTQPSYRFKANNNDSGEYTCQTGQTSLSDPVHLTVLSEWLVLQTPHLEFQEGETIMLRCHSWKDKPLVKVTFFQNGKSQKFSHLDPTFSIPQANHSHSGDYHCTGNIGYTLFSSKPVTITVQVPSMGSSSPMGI
Briefly: BLI (Octet RED 96), Human CD32a(H) on streptavidin biosensor, steady state analysis.

The target of experiment [12] is T5, Human FcRn (ACROBiosystems, FCM-H82W4) (human, UniProt P55899 24-297; P61769 21-119).
T5 construct: Loaded on streptavidin biosensors
T5 sequence (P55899 24-297 limits assumed, chain 1 of 2): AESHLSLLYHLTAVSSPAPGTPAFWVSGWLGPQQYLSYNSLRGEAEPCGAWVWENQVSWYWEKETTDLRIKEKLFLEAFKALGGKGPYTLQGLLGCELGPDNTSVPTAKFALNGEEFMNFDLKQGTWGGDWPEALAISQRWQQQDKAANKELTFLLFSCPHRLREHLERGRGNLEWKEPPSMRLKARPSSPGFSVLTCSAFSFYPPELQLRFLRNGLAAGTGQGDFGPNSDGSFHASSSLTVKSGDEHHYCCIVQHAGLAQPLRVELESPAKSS
T5 sequence (P61769 21-119 limits assumed, chain 2 of 2): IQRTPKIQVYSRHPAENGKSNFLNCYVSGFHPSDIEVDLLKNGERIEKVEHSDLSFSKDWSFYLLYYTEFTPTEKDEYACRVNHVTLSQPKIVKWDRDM
The experiment is described as follows: BLI (Octet RED 96), Human FcRn on streptavidin biosensor, steady state analysis.

Experiment [13] addresses T4, Human CD32a(H) (Sino Biological, …). Briefly: BLI; KD of CLDQMIX-CA808.1-IgG1 against KD of CLDQMIX-CA808.1-IgG1 VLPLL.
Experiment [14] concerns the target T2, Human CD16a(F) (Sino Biological, …). Described as above.
Experiment [15] has as its target T3, Human CD16a(V) (Sino Biological, …). The description is as above.
The target of experiment [16] is T5, Human FcRn (ACROBiosystems, FCM-H82W4). The description is as above.
Experiment [17] has as its target T6, Human CD32b (human, UniProt P31994 43-217, limits assumed).
T6 sequence (looked up): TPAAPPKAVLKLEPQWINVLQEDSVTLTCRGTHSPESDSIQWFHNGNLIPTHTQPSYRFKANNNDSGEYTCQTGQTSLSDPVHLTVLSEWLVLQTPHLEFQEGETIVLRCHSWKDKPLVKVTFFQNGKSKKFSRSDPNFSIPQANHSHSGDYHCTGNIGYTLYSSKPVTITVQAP
The experiment is described as follows: BLI (Octet RED 96), Human CD32b on streptavidin biosensor, steady state analysis.

The target of experiment [18] is T7, Claudin18.1 on cells (human, UniProt P56856 1-261).
T7 construct: whole, on cells
The experiment is described as follows: flow cytometry on 293T-Claudin18.1 cells, antibody at 0.75 µg/mL.

Experiment [19] addresses T1, Claudin18.2 on cells. Briefly: cell-based or functional assay. This is another data set of the same source.
Experiment [20] concerns the target T7, Claudin18.1 on cells. Briefly: flow cytometry on 293T-Claudin18.1 cells, antibody at 1.5 µg/mL.
For experiment [21], the target named is T1, Claudin18.2 on cells. The experiment is described as follows: cell-based or functional assay. This is another data set of the same source.
For experiment [22], the target named is T7, Claudin18.1 on cells. The experiment is described as follows: flow cytometry on 293T-Claudin18.1 cells, antibody at 0.375 µg/mL.
For experiment [23], the target named is T7, Claudin18.1 on cells. Briefly: flow cytometry on 293T-Claudin18.1 cells, antibody at 3 µg/mL.
The target in experiment [24] is T1, Claudin18.2 on cells. The experiment is described as follows: flow cytometry on 293T-Claudin18.2 cells, antibody at 1.5 µg/mL. The source holds these as a separate data set.
Experiment [25] deals with T1, Claudin18.2 on cells. Briefly: flow cytometry on 293T-Claudin18.2 cells, antibody at 0.375 µg/mL. This is another data set of the same source.
Experiment [26] has as its target T1, Claudin18.2 on cells. The experiment is described as follows: flow cytometry on 293T-Claudin18.2 cells, antibody at 0.75 µg/mL. The source holds these as a separate data set.
Experiment [27] concerns the target T1, Claudin18.2 on cells. Briefly: flow cytometry on 293T-Claudin18.2 cells, antibody at 3 µg/mL. This is another data set of the same source.

Residue numbers refer to the chain shown, from its start.

T3 sequence (P08637 17-208 F176V limits assumed): as the sequence (P08637 17-208 limits assumed) above, with F160V counted along it

B1: CLD393-C1002-IgG1 (antibody, V domains shown)
VH: QVQLVESGGGVVQPGRSLRLSCAASGFTFSSHDMHWVRQAPGKGLEWVADISDDGSNKNYADSVKGRFTISRDNSKNTLYLQMNSLRAEDAAVYYCAREGLRWFGEFYYSYGMDVWGQGTTVTVSS
VL: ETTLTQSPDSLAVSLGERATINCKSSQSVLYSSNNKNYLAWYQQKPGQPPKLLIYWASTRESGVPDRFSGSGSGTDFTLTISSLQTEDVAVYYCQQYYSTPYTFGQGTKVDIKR
notes: Complete IgG1 made in HEK293 cells; also called CLD387-C1002-IgG1
Take B1: the mean fluorescence intensity in experiment [1] came to 1.16e+06; in experiment [3] it was 4950; in experiment [4] it was 4890; in experiment [5] it was 1.33e+06; in experiment [6], 406000; in experiment [7], 852000. The molecule further had a mean fluorescence intensity in experiment [8] of 5170. The “ADCC inhibition rate, %, antibody 0.5 µg/mL, 293T-Claudin18.2 target cells, PBMC effectors, LDH” value in experiment [2] was found to be 22%. In addition, the “ADCC inhibition rate, %, antibody 5 µg/mL, 293T-Claudin18.2 target cells, PBMC effectors, LDH” value in experiment [2] turned out to be 49%. In addition, in [2], the “ADCC inhibition rate, %, antibody 50 µg/mL, 293T-Claudin18.2 target cells, PBMC effectors, LDH” value was 64%.

B2: CLD393-C1024-IgG1 (antibody, V domains shown)
VH: B1 VH with Q1E, E6Q, H32Y
VL: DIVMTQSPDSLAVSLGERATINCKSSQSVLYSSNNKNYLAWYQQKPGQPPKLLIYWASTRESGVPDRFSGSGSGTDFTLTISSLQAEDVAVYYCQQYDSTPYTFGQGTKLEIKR
notes: Complete IgG1 made in HEK293 cells; also called CLD383-C1024-IgG1
Regarding B2, the mean fluorescence intensity stood at 1.03e+06 in [1]; 5210 in experiment [3]; 5640 in [4]; 1.37e+06 in experiment [5]; 308000 in [6]; 787000 in experiment [7]. In experiment [8], this molecule came in with a mean fluorescence intensity of 6140. The “ADCC inhibition rate, %, antibody 0.5 µg/mL, 293T-Claudin18.2 target cells, PBMC effectors, LDH” value in experiment [2] was determined as 15%. The “ADCC inhibition rate, %, antibody 5 µg/mL, 293T-Claudin18.2 target cells, PBMC effectors, LDH” value in experiment [2] was 47%. In [2], the “ADCC inhibition rate, %, antibody 50 µg/mL, 293T-Claudin18.2 target cells, PBMC effectors, LDH” value amounted to 48%.

B3: CLDQMix-CA808.1-IgG1-VLPLL (antibody)
heavy: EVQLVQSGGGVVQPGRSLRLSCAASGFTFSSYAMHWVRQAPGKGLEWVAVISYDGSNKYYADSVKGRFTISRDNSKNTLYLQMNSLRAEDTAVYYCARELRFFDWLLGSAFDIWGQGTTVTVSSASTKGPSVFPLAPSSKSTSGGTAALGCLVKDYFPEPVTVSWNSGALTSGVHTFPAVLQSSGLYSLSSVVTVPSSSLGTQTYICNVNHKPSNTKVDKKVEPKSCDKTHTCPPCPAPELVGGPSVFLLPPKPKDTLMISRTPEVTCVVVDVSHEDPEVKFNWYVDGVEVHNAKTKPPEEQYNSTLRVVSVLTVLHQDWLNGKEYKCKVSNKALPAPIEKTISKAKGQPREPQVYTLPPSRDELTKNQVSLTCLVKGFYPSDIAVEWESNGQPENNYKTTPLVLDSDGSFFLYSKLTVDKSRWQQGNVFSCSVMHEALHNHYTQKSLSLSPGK
light: DIVMTQSPSSLSASVGDRVTITCRASQGIRNDLGWYQQKPGKAPKLLIYAASSLQSGVPSRFSGSGSGTDFTLTISSLQPEDFATYYCLQDYNYPRTFGQGTKVEIKRTVAAPSVFIFPPSDEQLKSGTASVVCLLNNFYPREAKVQWKVDNALQSGNSQESVTEQDSKDSTYSLSSTLTLSKADYEKHKVYACEVTHQGLSSPVTKSFNRGEC
B3: the Kd in experiment [9] worked out at 119 nM; in experiment [10], 54.1 nM; in experiment [11], 300 nM; in experiment [12], 5.27 nM; in [17], 3000 nM. The “Ratio of KD” value is 1.37 in experiment [13], 4.75 in [14], 1.98 in [15] and 1.31 in [16].

B4: CLDQMIX-CA808.1-IgG1 (antibody)
heavy: not shown
light: B3 light
notes: Complete IgG1 made in HEK293 cells from the scFv clone; also called CLDMIX-CA808.1-IgG1
As for B4, the Kd in experiment [9] came to 566 nM; in experiment [10], 107 nM; in experiment [11], 410 nM; in experiment [12], 6.93 nM; in [17], 3200 nM. The mean fluorescence intensity was 75600 in [3]; 29400 in experiment [18]; 28900 in experiment [20]; 138000 in experiment [4]; 26000 in experiment [22]; 47500 in [23]. The mean fluorescence intensity in experiment [24] was determined as 1.2e+06; in experiment [8] it was 185000; in [25] it was 535000; in experiment [26] it was 753000; in experiment [27] it was 1.38e+06. The “ADCC EC50 (µg/mL), NUGC4 target cells, Jurkat reporter effector cells, Bio-Glo” value in [19] was 1.26 µg/mL. In addition, the “ADCC inhibition rate, %, antibody 0.1 µg/mL, 293T-Claudin18.2 target cells, PBMC effectors, LDH” value in experiment [21] came out at 39.4%. For the same molecule, in [21], the “ADCC inhibition rate, %, antibody 1 µg/mL, 293T-Claudin18.2 target cells, PBMC effectors, LDH” value is 63.6%. The “ADCC inhibition rate, %, antibody 10 µg/mL, 293T-Claudin18.2 target cells, PBMC effectors, LDH” value in experiment [21] worked out at 57.4%.
